We go through 2 substances from paper PMC13582642.

In data set [1] the target is macrophage mannose receptor (CD206) (human (endogenous in moDCs)) (UniProt P22897).
The target in data set [2] is UV-stressed (aggregated) infliximab. The data set is described as follows: FFF-MALS; asymmetric flow field flow fractionation (Eclipse AF4) with UV, MALS and dRI detectors; mobile phase 0.01 M monopotassium phosphate, 0.0027 M potassium chloride, 0.137 M sodium chloride.
Data set [3] concerns the target Fc gamma receptor IIa (human (endogenous in moDCs)) (UniProt P12318).
Data set [4] concerns the target UV-stressed (aggregated) infliximab. Briefly: SEC; Agilent Bio SEC-3 column, 25 °C, 50 mM sodium phosphate, 150 mM KCl, 10% isopropanol, pH 6.8; samples at 1 mg/ml; fluorescence detection; percentages from peak areas. (Size exclusion chromatography separates by hydrodynamic size, large species first.)
Experiment in data set [5]: as above

Several values for one entry are separate records, joined by “and”; a condition that tells them apart may be missing. Equal entries are not always repeated.

UniProt P22897, sequence (P22897 19-1456): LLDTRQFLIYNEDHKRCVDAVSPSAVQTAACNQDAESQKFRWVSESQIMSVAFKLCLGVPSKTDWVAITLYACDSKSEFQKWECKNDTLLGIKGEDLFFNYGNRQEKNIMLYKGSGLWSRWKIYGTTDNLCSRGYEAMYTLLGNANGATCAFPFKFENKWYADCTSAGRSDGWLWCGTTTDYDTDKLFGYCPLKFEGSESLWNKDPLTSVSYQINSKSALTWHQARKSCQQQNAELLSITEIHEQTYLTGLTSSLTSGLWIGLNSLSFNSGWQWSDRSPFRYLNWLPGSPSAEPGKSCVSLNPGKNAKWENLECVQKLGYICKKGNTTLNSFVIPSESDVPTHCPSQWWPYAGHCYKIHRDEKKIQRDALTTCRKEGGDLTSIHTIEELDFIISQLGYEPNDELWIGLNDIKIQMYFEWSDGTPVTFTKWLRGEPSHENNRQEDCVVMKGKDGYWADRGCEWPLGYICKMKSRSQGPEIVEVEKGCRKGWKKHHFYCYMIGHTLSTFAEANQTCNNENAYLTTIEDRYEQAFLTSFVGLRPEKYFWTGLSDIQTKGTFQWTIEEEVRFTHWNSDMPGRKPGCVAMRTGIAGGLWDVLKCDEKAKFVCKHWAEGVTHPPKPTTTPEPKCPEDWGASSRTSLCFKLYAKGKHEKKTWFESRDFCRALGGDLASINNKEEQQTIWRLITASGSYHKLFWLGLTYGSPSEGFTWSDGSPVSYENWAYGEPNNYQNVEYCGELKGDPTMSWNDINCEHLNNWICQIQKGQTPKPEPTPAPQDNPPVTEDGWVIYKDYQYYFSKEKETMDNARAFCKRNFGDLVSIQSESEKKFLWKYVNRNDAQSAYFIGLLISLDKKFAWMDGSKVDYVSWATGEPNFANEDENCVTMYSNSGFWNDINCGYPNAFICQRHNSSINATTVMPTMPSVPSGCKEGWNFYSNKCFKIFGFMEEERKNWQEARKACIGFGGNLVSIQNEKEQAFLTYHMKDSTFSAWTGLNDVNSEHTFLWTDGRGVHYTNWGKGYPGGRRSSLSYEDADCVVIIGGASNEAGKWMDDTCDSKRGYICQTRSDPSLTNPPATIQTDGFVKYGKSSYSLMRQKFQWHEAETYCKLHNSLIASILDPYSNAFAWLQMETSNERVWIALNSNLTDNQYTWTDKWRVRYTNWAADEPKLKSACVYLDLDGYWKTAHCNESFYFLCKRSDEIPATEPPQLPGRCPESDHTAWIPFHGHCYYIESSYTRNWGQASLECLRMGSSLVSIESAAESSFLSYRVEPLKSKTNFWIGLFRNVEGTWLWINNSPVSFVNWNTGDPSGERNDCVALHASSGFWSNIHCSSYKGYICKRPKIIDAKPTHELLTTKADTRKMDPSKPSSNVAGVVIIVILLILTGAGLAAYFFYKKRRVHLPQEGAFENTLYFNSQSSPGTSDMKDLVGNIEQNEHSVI
UniProt P12318, sequence (P12318 34-317): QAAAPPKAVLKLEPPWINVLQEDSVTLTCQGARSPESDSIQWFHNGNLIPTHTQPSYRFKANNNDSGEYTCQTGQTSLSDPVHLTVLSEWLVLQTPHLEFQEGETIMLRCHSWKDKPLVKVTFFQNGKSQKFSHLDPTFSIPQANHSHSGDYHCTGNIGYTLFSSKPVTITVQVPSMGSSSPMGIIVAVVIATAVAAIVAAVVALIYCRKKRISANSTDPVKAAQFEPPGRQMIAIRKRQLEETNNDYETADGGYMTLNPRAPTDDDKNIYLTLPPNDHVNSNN

Consider “UV-stressed (aggregated) infliximab (antibody)”, for which, in data set [1], the inhibition of the internalization rate of AF-488 IFX UV by moDCs (flow cytometry, 37 °C minus 4 °C) after pre-treatment with anti-CD206 IgG (10 µg/ml) was 39% and the inhibition of the percentage of moDCs internalizing AF-488 IFX UV after pre-treatment with anti-CD206 IgG (10 µg/ml) worked out at 32%. In addition, in data set [2], the percent of dimers (FFF-MALS) is 22.4%; the percent of trimers and oligomers (FFF-MALS) was determined as 24.7%. Moreover, the reduction of the uptake of AF-488 IFX UV by moDCs after pre-treatment with anti-FcγRIIa Ab (1 µg/ml) in data set [3] turned out to be 19%. For the same substance, the stoichiometry N in data set [4] was 2 and 3.
For the substance UV-stressed (aggregated) infliximab, in data set [5], the “percent of dimers (ratio of SEC peak areas)” value is reported as 19.27% ± 0.24% dimers and the “percent of trimers (ratio of SEC peak areas)” value is 26.19% ± 3.95 trimers.

The term stoichiometry N denotes the number of molecules, sites or subunits per partner or assembly.
